B1: oxoG 48 bp (EMSA/FP) (dsDNA)
DNA 1: GCATGCCTCGAGTCTAGAGGTACCAGATCTGATCCTCTAGAGTCGACC
DNA 2: GGTCGACTCTAGAGGATCAGATCTGGTACCTCTAGACTCGAGGCATGC
modifications: 8-oxoguanine at position 10 of strand 1 (written G)
B2: undamaged (nsp) 48 bp (dsDNA)
DNA 1: GCATGCCTCGAGTCTAGAGGTACCAGATCTGATCCTCTAGAGTCGACC
DNA 2: GGTCGACTCTAGAGGATCAGATCTGGTACCTCTAGACTCGAGGCATGC

Assays:
hOGG1 C28A [1] = target: T1, hOGG1 C28A (human, UniProt O15527 1-345, C28A); assay: fluorescence polarisation; oxidising; FP at 25°C with 5 nM labelled DNA; EMSA room temp 30 min, 15% native PAGE 0.5x TBE 4°C; interaction buffer 20 mM Tris-HCl pH 7.6, 200 mM NaCl (Fig. S12); reducing (5 mM DTT in EMSA) or oxidising (pre-oxidised hOGG1); conditions: protein: recombinant; tags: N-terminal His6 (removed where required); label: 5' AF647 (FP) or Cy3 (EMSA) on bottom strand; blunt
T1 sequence (O15527 whole entry C28A): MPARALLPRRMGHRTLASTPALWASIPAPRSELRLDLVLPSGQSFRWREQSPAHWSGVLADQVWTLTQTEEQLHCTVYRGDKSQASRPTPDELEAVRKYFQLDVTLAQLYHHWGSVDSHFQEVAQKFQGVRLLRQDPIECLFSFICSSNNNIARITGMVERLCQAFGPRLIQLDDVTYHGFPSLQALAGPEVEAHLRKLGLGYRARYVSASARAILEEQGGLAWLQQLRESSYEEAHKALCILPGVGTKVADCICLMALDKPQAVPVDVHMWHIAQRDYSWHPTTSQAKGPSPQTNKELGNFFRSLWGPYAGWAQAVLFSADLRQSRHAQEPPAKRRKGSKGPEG

hOGG1 K249Q [2] = target: T2, hOGG1 K249Q (human, UniProt O15527 1-345, K249Q); assay: as above; conditions: protein: recombinant; tags: N-terminal His6 (removed where required); label: 5' AF647 (FP) or Cy3 (EMSA) on bottom strand; blunt
T2 sequence (O15527 whole entry K249Q): as the sequence (O15527 whole entry C28A) above, with A28C, K249Q counted along it

hOGG1 wild type;c-Myc [3] = target: T3, hOGG1 wild type;c-Myc (human;human?, UniProt O15527;P01106 1-345;16-454, |); assay: EMSA; 300 nM each; oxidising and reducing (less stable reducing); FP at 25°C with 5 nM labelled DNA; EMSA room temp 30 min, 15% native PAGE 0.5x TBE 4°C; interaction buffer 20 mM Tris-HCl pH 7.6, 200 mM NaCl (Fig. S12); reducing (5 mM DTT in EMSA) or oxidising (pre-oxidised hOGG1); conditions: protein: recombinant;commercial; tags: N-terminal His6 (removed by protease where required);GST; quantum dot in E-box AFM; label: 5' AF647 (FP) or Cy3 (EMSA) on bottom strand; blunt
T3 sequence (O15527 whole entry, chain 1 of 2): as the sequence (O15527 whole entry C28A) above, with A28C counted along it
T3 sequence (P01106 16-454, chain 2 of 2): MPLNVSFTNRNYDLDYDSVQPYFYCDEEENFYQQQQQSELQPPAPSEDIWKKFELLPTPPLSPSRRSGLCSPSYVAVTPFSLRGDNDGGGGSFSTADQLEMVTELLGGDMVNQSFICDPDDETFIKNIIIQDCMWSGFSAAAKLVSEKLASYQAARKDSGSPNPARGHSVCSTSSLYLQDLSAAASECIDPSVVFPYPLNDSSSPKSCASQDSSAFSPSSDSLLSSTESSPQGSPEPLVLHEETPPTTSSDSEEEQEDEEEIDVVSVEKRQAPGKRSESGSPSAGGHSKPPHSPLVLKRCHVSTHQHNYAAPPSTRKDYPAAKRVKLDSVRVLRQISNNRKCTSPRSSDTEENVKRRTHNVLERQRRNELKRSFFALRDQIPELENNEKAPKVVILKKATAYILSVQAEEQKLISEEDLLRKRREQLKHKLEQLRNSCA

hOGG1 C253A = hOGG1 C253A (human, UniProt O15527 1-345, C253A); assay: fluorescence polarisation; reducing; FP at 25°C with 5 nM labelled DNA; EMSA room temp 30 min, 15% native PAGE 0.5x TBE 4°C; interaction buffer 20 mM Tris-HCl pH 7.6, 200 mM NaCl (Fig. S12); reducing (5 mM DTT in EMSA) or oxidising (pre-oxidised hOGG1); conditions: protein: recombinant; tags: N-terminal His6 (removed where required); label: 5' AF647 (FP) or Cy3 (EMSA) on bottom strand; blunt
hOGG1 C253A, sequence (O15527 whole entry C253A): as the sequence (O15527 whole entry C28A) above, with A28C, C253A counted along it

hOGG1 C28A [4] = target: T1, hOGG1 C28A; assay: as above; conditions: protein: recombinant; tags: N-terminal His6 (removed where required); label: 5' AF647 (FP) or Cy3 (EMSA) on bottom strand; blunt
hOGG1 K249Q [5] = target: T2, hOGG1 K249Q; assay: as above; conditions: protein: recombinant; tags: N-terminal His6 (removed where required); label: 5' AF647 (FP) or Cy3 (EMSA) on bottom strand; blunt
hOGG1 wild type;c-Myc [6] = target: T3, hOGG1 wild type;c-Myc; assay: EMSA; less stable under reducing conditions; FP at 25°C with 5 nM labelled DNA; EMSA room temp 30 min, 15% native PAGE 0.5x TBE 4°C; interaction buffer 20 mM Tris-HCl pH 7.6, 200 mM NaCl (Fig. S12); reducing (5 mM DTT in EMSA) or oxidising (pre-oxidised hOGG1); conditions: protein: recombinant;commercial; tags: N-terminal His6 (removed by protease where required);GST; quantum dot in E-box AFM; label: 5' AF647 (FP) or Cy3 (EMSA) on bottom strand; blunt

| Binder | Kd (hOGG1 C28A [1]) [µM] | Kd (hOGG1 K249Q [2]) [µM] | binding result (hOGG1 wild type;c-Myc [3]) | Kd (hOGG1 C253A) [µM] | Kd (hOGG1 C28A [4]) [µM] | Kd (hOGG1 K249Q [5]) [µM] | binding result (hOGG1 wild type;c-Myc [6]) |
| --- | --- | --- | --- | --- | --- | --- | --- |
| B1 | 0.061 ± 0.011 | 0.095 ± 0.005 | binds | 0.099 ± 0.024 | 0.065 ± 0.008 | 0.042 ± 0.003 |  |
| B2 |  |  |  |  |  |  | binds |
